Assay results reported in patent US11156558B2, “Assessment of stability of biological product in prefilled syringes” (Becton Dickinson France, priority 2016, dated 2021).

Experiments:
[1] = Stability of mimetic peptide solution stored in direct contact with adhesive and insoluble tungsten (UPLC/DAD); type: physicochemical; details: insoluble tungsten, 3 days at 70° C., ammonium acetate pH4 buffer (20 mM)+0.02% tween 80, 45 μg/ml
Procedure: (§1) Peptide solutions were analyzed by LC/DAD/MS with Quattro premier XE Mass spectrometer from Waters.
The AAHAA (SEQ ID NO: 2) peptide was dissolved in ammonium acetate pH4 buffer (20 mM)+0.02% of tween 80 to a final concentration of 45 μg/ml. The AAHAA (SEQ ID NO: 2) peptide solution was stored in direct contact with the adhesive used to stake the needle to the syringe and with insoluble tungsten, a potential process residue, for 3 days at 70° C.
FIG. 3 is AAHAA (SEQ ID NO: 2) peptide ULPC/DAD chromatograms after 3 days at 70° C. in direct contact with two syringe components: (a) adhesive and (b) insoluble tungsten. (c) is chromatogram references.

[2] = Stability of mimetic peptide solution stored in direct contact with plunger stoppers (UPLC/DAD/MS); type: physicochemical
Procedure: as §1
The peptide AAWAA (SEQ ID NO: 1) was dissolved in ammonium acetate pH4 buffer (20 mM)+0.02% Tween 80 to a final concentration of 45 μg/ml. The obtained AAWAA (SEQ ID NO: 1) peptide solutions were stored in direct contact with a non-coated and an ETFE coated plunger stoppers for 30 days at 25° C./60% RH.
FIG. 1 is a UPLC/DAD chromatogram of AAWAA (SEQ ID NO: 1) pentapeptide in direct contact with a coated and a non-coated plunger stopper after 15 days (c, d) and 30 days (a,b) of storage at 25° C./60% RH. Chromatograms e and f are AAWAA (SEQ ID NO: 1) solutions references (without any direct contact with plunger stoppers),
FIG. 2 is the electrospray positiv (ESI+) mass spectra of (a) intact AAWAA (SEQ ID NO: 1) peptide (Retention time of 17.2 min) and (b) oxidized form of AAWAA (SEQ ID NO: 1)(Retention time of 17.1 min) detected after 30 days (25° C.) of contact between the non-coated plunger stopper and AAWAA (SEQ ID NO: 1) peptide solution.

Substance	reaction with syringe component (degradation) [1]	oxidized form (ESI+ mass spectra) ([2]; after 30 days (25° C.) of contact with the non-coated plunger stopper)	degradation yield ([2]; non-coated vs ETFE coated plunger stopper, direct contact, 30 days at 25° C./60% RH, ammonium acetate pH4 buffer (20 mM)+0.02% Tween 80, 45 μg/ml)
Ala-Ala-His-Ala-Ala (AAHAA; synthesized pentapeptide) [mimetic model pentapeptide]	react with insoluble tungsten		
Ala-Ala-Trp-Ala-Ala (AAWAA; synthesized pentapeptide) [mimetic model pentapeptide]		detected	more important when the peptide is in direct contact with the non-coated plunger stopper
